The test addresses KGF receptor (membrane preparations from Balb/MK mouse epidermal keratinocytes) (mouse) (UniProt P21803). Put plainly: radioreceptor competition against 125I-labeled E. coli KGF, Balb/MK membrane preparations.

Chain of KGF receptor (membrane preparations from Balb/MK mouse epidermal keratinocytes) (mouse) (P21803 22-821): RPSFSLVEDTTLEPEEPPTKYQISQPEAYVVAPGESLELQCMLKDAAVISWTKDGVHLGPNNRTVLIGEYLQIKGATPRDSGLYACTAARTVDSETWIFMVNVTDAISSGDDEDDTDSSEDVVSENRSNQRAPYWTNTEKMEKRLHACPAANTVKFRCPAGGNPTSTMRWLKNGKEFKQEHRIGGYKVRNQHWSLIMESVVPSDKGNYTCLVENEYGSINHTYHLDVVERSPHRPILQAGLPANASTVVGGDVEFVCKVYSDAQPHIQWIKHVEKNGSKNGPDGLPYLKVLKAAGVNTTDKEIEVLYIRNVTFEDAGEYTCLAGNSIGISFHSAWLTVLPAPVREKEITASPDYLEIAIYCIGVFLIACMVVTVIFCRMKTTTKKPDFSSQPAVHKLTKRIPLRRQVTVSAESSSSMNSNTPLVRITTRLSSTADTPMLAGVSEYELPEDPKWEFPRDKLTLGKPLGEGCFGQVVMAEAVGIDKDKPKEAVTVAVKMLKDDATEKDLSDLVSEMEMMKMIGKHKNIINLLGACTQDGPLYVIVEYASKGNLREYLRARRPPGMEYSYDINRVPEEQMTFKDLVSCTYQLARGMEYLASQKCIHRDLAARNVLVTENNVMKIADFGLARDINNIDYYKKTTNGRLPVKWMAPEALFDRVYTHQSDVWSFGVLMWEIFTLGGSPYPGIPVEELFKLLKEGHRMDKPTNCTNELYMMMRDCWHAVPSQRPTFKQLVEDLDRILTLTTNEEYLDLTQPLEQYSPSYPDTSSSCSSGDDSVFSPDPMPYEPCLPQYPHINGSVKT

With “KGF-a (CHO-derived glycosylated recombinant KGF, 25-29 kDa form) (ligand)”, the KGF concentration to compete receptor binding with I^125-labeled KGF at 60% uncompetition rate is 93.5 ng/mL.

“KGF-b (CHO-derived N-terminally truncated unglycosylated KGF, about 17 kDa, cleaved at Arg23-Ser24) (ligand)” yielded a KGF concentration to compete receptor binding with I^125-labeled KGF at 60% uncompetition rate of 89.1 ng/mL.

As to “E. coli-derived, full-length native KGF (keratinocyte growth factor) (ligand)”, the KGF concentration to compete receptor binding with I^125-labeled KGF at 60% uncompetition rate worked out at 65.8 ng/mL.

For the origin of these results see patent EP0785948B1.
